{"source": "the nanobody polyreactivity screen of Harvey et al. (2022)", "data": [{"experiment": "yeast display, Sf9 membrane polyspecificity reagent, FACS + sequencing; frameworks hold sequencing errors", "summary_of_the_method": "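Galactose induction of a Saccharomyces cerevisiae BJ5465 synthetic nanobody display library ran 36–48 hours. The cells were then stained for 1 hour at 4 °C with 10% biotinylated, detergent-solubilized Sf9 membrane reagent, pulled down on streptavidin microbeads and FACS-sorted into low and high (top ~1%) gates on expression and reagent-binding fluorescence. Labels for polyreactivity follow the gate of origin.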", "values": [{"sequence": "QVQLVESGGGLVQAGGSLRLSCAASGRILDANDMGWYRQAPGKERELVAGINSGGSTYYADSVKGRFTISRDNAKNTVYLQMNSLKPEDTAVYYCAAGGVSAKYDYWGQGTQVTVSS", "polyreactivity (PSR sort gate)": "low polyreactivity"}, {"sequence": "QVQLVESGGGLVQAGGSLRLSCAASGRTFGLYAMGWYRQAPGKERELVAAIDQSTGSTYYADSVKGRFTISRDHAKNTVYLQMNSLKPEDTAVYYCAAEEASTVRYYWYDYWGQGTQVTVSS", "polyreactivity (PSR sort gate)": "high polyreactivity"}, {"sequence": "QVQLVESGGGLVQAGGSLRLSCAASGFTISVYAMGWYRQAPGKERELVAAISWNGGRTYYAVSVKGRFTISRDNAKNTVYLQMNSLKPEDSAVYYCNKVSGYDVDYWGQGTQVTVSS", "polyreactivity (PSR sort gate)": "high polyreactivity"}, {"sequence": "QVQLVESGGGLVQAGGSLRLSCASSGRIFLTNAMGWYRQAPGKERELVAAITSGGSTYYADSVKGRFTISRDNAKNTVFLQMNSLKPEDTAVYYCIADTDRYWPYEYDYWGQGTQVTVSS", "polyreactivity (PSR sort gate)": "low polyreactivity"}, {"sequence": "QVQLVESGGGLVQAGGSLRLSCAASGSIFSYYAMAWYRHAPGKEREMVAAITSGGATTYYADSVKGRFTISRDNAKNTVYLQMNSLKQEDTAVYFCAAGYYVYFRWWELDYWGQGTQVTVSS", "polyreactivity (PSR sort gate)": "low polyreactivity"}, {"sequence": "QVQLVESGVGLVQAGGSLRLSCAASGRIFRPYAMGWYRQAPGKERELVAAITQSGGITSYADSVKGRFTISRDNAKNTVYLQMNSLKPEDTAVYYCATTSRYTRSHYDWYDYWGQGTQVTVSS", "polyreactivity (PSR sort gate)": "low polyreactivity"}, {"sequence": "QVQLLESGGGLVQAGRSLRLSCAASGRTFRIYAMGWYRQAPGKEREEVAAITRSSGSTFYADSVKGRFTISRDNAKNTVYLQMNSLKPEDTAVYYCAAEYFEWWVTYDYWGQGTQVTVSS", "polyreactivity (PSR sort gate)": "high polyreactivity"}, {"sequence": "QVQLVESGGGLVQAGGSLRLICDASGSTFYRYAMGWYRQAPGKERELVAAISRSGGRTYYADSVKGRFTISRDNAKNTVYLQMNSLKPEDTADYYCAADVGPKQDATHDYWGQGTQLTVSS", "polyreactivity (PSR sort gate)": "high polyreactivity"}, {"sequence": "QVQLVESGGGLVQAGGSLRLSCAASGRIFSIYGMGWSRQAPGKERELVAVISGSVGITYYADSVKVRFTISRDNAKNTVYLQMISLKPEDTAVYYCNAKVRRRKYDYWGQGTQVTVSS", "polyreactivity (PSR sort gate)": "high polyreactivity"}, {"sequence": "QVQLVESGGGLVQAGGSLRLSCAASGSINCSNAMGLYRKAPRKERDLVAAITESGGDTYYADSVKGRFTISRDNAKNTVYLLINSMKPEDTAVYYCAARYFGVIVDVSLFSEYGSWGQGTQVTVSS", "polyreactivity (PSR sort gate)": "low polyreactivity"}, {"sequence": "QVQLVESGGGLVQAGGSLRLSCAASGSIFRFYAMGWYRQATGKEREFVASITGTGGSTYYADSVKGRFTISRDNAKNTVYLQMNSLKPEDTAVYYCNARPYGWYDTYRLYGYWGQGTQVTVSS", "polyreactivity (PSR sort gate)": "high polyreactivity"}, {"sequence": "QVQHVESGGGLVQAGGSLRLSCAASGRIFYLNAMGWYRQAPGKERELVAAISRVGRTNYADSVKGRFTISRDNAKNTVYLQMNSLKPEDTAVYYCAAVYYSVNGRHGYWGQGTQVTVSS", "polyreactivity (PSR sort gate)": "high polyreactivity"}, {"sequence": "QVQLVDSAAGLVQARRSLRLSCAASGRTFPLNVMGWYRLAPGKEREFVAAIRWNGGSTYYADSVKGRFTISRDHAKNTVYLQLNCLIPEDTSVYYCAAQLFRRGRYAGNPMDYWGQGTQVTVSS", "polyreactivity (PSR sort gate)": "high polyreactivity"}, {"sequence": "QLQLVESGGGLVQAGGSLRLISAASGLTFADYAMGWYRQAPGKERELVAAISSNGGSTNYADSVKGRFTISRDNAKNTVYLQMNSLKPEDTAVYYCAARPRNNARFWDYNYWGQGTQVTVSS", "polyreactivity (PSR sort gate)": "high polyreactivity"}, {"sequence": "QVQLVESGGGLVQAGGSLRLSCAASGSTFKRNAMGWYRQAPGKERELVAAISWSGGSTYYADSVKGRFTISRDNAKNTVYLQMNSLKPEDTAVYYCNADHPFPQYEGGSWGQGTQVTVSS", "polyreactivity (PSR sort gate)": "low polyreactivity"}, {"sequence": "QDQLVESRGGLVQAGGSLRLSSAASGFTLVVNAMGWYRQAPGKERELVAAITSRCGGTYYADSVKGRFTISRDKANNSVYLQMNSLKPEDTAVYYCAAPSLIVSTHRYGYWGQGTEVTVSS", "polyreactivity (PSR sort gate)": "low polyreactivity"}, {"sequence": "QVQLVESGGGLVQAGGILRLSCASSGSICYWYAMGWYRQAPGKERELVASITGGGSKKYAESLKGRFTISRDNANNSVYLQINSLKREDTAVYYCAARYGQPWGSRYYYWGQVTQVTVSS", "polyreactivity (PSR sort gate)": "high polyreactivity"}, {"sequence": "QVHLVDSGGGLVQAGGSLSLSCAPSGTTFHPYAMGCYRHAPGKEREFVATISGSAGSTYYADSVKGRFKISRDNAKNTVYLQMNSLKPEDTAVYYCNADSGWFGYDYWGQGTQVTVSS", "polyreactivity (PSR sort gate)": "low polyreactivity"}, {"sequence": "QVQLVESGGGLVQAGGSLRLSCAASGRIFHIYAMGWYRPAPGKERELVAAIRSSGGSTYYADSVKGRFTISRDNAMNTVYLQMNSLKPEDTAVYYCNKYVAYDYWGQGTQVTVSS", "polyreactivity (PSR sort gate)": "low polyreactivity"}, {"sequence": "QVQLVESGVGLVQAGGSLRLSCADSGSNFRYTMGCYRQAPWKERELVAAINRGASTYYADSVKGRFTISRDNAKKTVYLQMNSLKPVDNAVYYCAASVGTQGYHGDYWGQGTQVTVSS", "polyreactivity (PSR sort gate)": "high polyreactivity"}, {"sequence": "HVQLVESGGGLVQAGGSLRLSCAASGLTFEDNDMGWYRQAPGKERELVAAISSAGSTSYADSVKGRFTISRVNAKNTVYLQMNSLKPEDTAVYYCAKDNSPSYTPAQLDGGDDYWGHGTQVTVSS", "polyreactivity (PSR sort gate)": "low polyreactivity"}, {"sequence": "QVQLVESGGRLVQAGGTLRLSCAASGRIFGDYAMGWYRQAPGKERELVAVISVGGRTTYADSVKGRFTISRDNAKNTVYLQMNSLKPEDTAVYYCATRLSTRDGGYRGQGTQVTVSS", "polyreactivity (PSR sort gate)": "low polyreactivity"}, {"sequence": "HGQLVESGGGLVQAGGSLRLSCAASGITFTPKDMGWYREAPGKERELVAAISSSDGTTYYADSVTGRFTSSRDNAKNTVYLQMNSLKPEDTAVYYCAAEYYYSPAYDYYSGFKTLYYDWGQGTQVTGSS", "polyreactivity (PSR sort gate)": "high polyreactivity"}, {"sequence": "QVQLVESGGGLVHAGGSLRLSCDASGITFGPYGMGWYRQAHGKEREFVATITTIGGITYYADSVKGRFTISRDNAKNTFYLQMNSLKPEDTAVYYCAAPWFHGYDALVDYWGQGTQVTVSS", "polyreactivity (PSR sort gate)": "low polyreactivity"}, {"sequence": "QVQLVESGGGLVQAGGSLRLSCAASGRIFTDYAMGWYRQAPGKERELVAAISSGGSTYYADSVKGRFTISRDNAKNTVYLQMNSLKPEDTAVYFCAAELFYGRSSSGYYYWGQGTQVTVSS", "polyreactivity (PSR sort gate)": "high polyreactivity"}, {"sequence": "QVQLVESGGGLVQAGGSLRLSCAASGFIFDYNVMGWYRQAPGKKGSWVAAISWSGGSTYYADSVKGRFTISRDNAKNTVYLQMNSLKPEDTAVYYCAARGTSTYRGTGRYDYWGQGTQVTVSS", "polyreactivity (PSR sort gate)": "high polyreactivity"}, {"sequence": "QDQLVESGGGLVQAGGSLRLSCAASGYTFTSNAMGWYRQAPRKERELVAAITNVGSTNYADSVKGRFTISRDNAKNTVNLQMNSLKPEDTAVYYCAAGGSSSWAFNYWGQGTQVTVSS", "polyreactivity (PSR sort gate)": "low polyreactivity"}, {"sequence": "QVQLVESGGGLVQAGGSLRLICAASGRIFYVYAMGWYRQAPGKERELVAAITSGGSTYYADSVKGRFTISRDNAKNTVYLQMNSLKPEDTAVYYCAAYNRGRFRPYRFEYWGQGTQVTVSS", "polyreactivity (PSR sort gate)": "high polyreactivity"}, {"sequence": "QVQLVESGGGLVQAGGSLRLSCAASGRIFRYNAMGWYRPAPGKERELVAAIRFSGGSTYYADSVKGRFTISRDHAKNTVYLQMNSLKPEDTAVYDCAKVYFRVQSGMDYWGQGTQVTVSS", "polyreactivity (PSR sort gate)": "low polyreactivity"}, {"sequence": "QVQLVESGGGLVQAGGSLRLSCAASGSIFHKYTMGWYRQAPGKERELVAAITRSGGSTYYADSVNGRFTISRDNAKNTVYLQMNSLKAEDTAVYYCNKRYIPWAYDYWGQGTKVTVSS", "polyreactivity (PSR sort gate)": "high polyreactivity"}, {"sequence": "QVQLVESGGGLVQAGGSLRLSCAASGSIFTWNAMGWYRQAPGKERELVAAISWIGDSTYYADSVKGRFTISRDNAKNTVYLQMNSLKPEDTAVYYCAAEYAQGSRELESWGQGTQVTVSS", "polyreactivity (PSR sort gate)": "low polyreactivity"}, {"sequence": "QVQIVESGGGLVQAGGSLRLSCAASGRTFFPYAMGWYRQAPGKEREFVAAITKTDDSTYYADSVKGRFTISRDNAKNTVYLQMNSLKPEDTAVYYCAADRSISADYVVSVDYDYWGQGTQVTVSS", "polyreactivity (PSR sort gate)": "low polyreactivity"}, {"sequence": "QVQLVESGGGIVQAGGSLRLSCAASGRTFAYYAMGWYRQAPGKERELVAAIDSSGGSTYYADSVKGRFTISRDNAKNTVYLQMYSLKPEDTAVYYCAASYPYDRYDQGGYGYWGQGTQVTVSS", "polyreactivity (PSR sort gate)": "low polyreactivity"}, {"sequence": "QVQHVESGGGLVQAGGSLRLSCAASGSTFWFNAMGWYRQATGKVRELVAAITSGSTYYADSVKGRFTISRDNAKNTVYLPMNSLQPEYTAVYYCASTEFTFYYSYDYWAQGTQVTVSS", "polyreactivity (PSR sort gate)": "low polyreactivity"}, {"sequence": "QDQLVESGGGLVQAGGSLRLSCAASGRTFIYYVMGWSRQAPGKERELVAAISLRGSSTRYADSVKGRFTISRDNAKNTVYLQMNSLKPEDTAVYYCAARPRLSRYDYWGQGTQVTVSS", "polyreactivity (PSR sort gate)": "high polyreactivity"}, {"sequence": "QVQLVESGGGLVQAGGSLRLSCAASGFIFDAYVMGWYRQAPGKERELVAAITSSGGSTYYADSVKGRFTISRDNAKNTVYLQMNSLKPEDTAVYYCAATYWPWFVGYTYDLDYWGQGTQVTVSS", "polyreactivity (PSR sort gate)": "low polyreactivity"}, {"sequence": "QVQLVESGGGLVQAGGSLRLSCAASGSIFGFYAMGWYRQAPGKERELVAAITTGGSTYYADSVKGRFTISRDNAKNNVYFQMISLKPEDTAVYYCAKERWFPYERNDYWGQGTLVTVSS", "polyreactivity (PSR sort gate)": "low polyreactivity"}, {"sequence": "QVQLVESGRGLVRAGGSLRLSCAASGRTFGVYAMGWYRQAPGKERELVASIRYSGVSTYYADSVKGRFTISRDNAKNTVYLQMNSLKPEDTAVYYCAARYRSRRVDYGYDYWGQGTQVTVSS", "polyreactivity (PSR sort gate)": "high polyreactivity"}, {"sequence": "QVQLEESGGGLVQAGGSLRLSCAASGIIFITYAMGWYRQAPGKEREMVAAITNSGGGTYYADSVKGRFTISRDNAKNTVYLQLNSLKPEDTAVYYCAARKTAYGYRYDYWGQGTQVTVSS", "polyreactivity (PSR sort gate)": "high polyreactivity"}, {"sequence": "QVQLVESGGGLVQAGGSLRLSCAASVFTFQYYAMGWYRQAPGKERELVAAISRRGGRTDYADSVKGRFTISRDNAKNTVYLQMNSLKPEDTAVYYCARDPGAFEYWGQGTQVTLSS", "polyreactivity (PSR sort gate)": "high polyreactivity"}, {"sequence": "QVQLVESGGGLVQAGGSLRLSCAASGRTFVYNAMGWYRQAPGKERELVAAISSSGGSTRYADSVKGRFTISRDNAKNTVYLQMNSLKPEDTAVYYCNRLRYSNRYDTWGQGTQVTVSS", "polyreactivity (PSR sort gate)": "high polyreactivity"}, {"sequence": "QVQLVESGGGLVQAGGSLRLSCAASGSIFEVNAMGWYRQAPGKERELVAAISCSGGSTYYADSVKGRFTISRDNAKNTVYLQMNSLKPEDTAVYYCAADWRQGLWYGYYYWGQGTQVTVSS", "polyreactivity (PSR sort gate)": "low polyreactivity"}, {"sequence": "QVQLVESGGGLVQAGGSLRLSCAASGSTFPTYAMGWYRPAPGKERELVAAITRGGRTYYADSVKGRFTISRDNAKNTVYLQMNSLKPEDTAVYYCAAVYYGAAQYNYWGQGTQVTVSS", "polyreactivity (PSR sort gate)": "high polyreactivity"}]}]}
